{
  "source": "paper PMC10002811",
  "about": "“Timed material self-assembly controlled by circadian clock proteins” (ArXiv, 2024)",
  "binders": {"B1": {"name": "FITC-labeled KaiB K25C (natural protein, UniProt Q79PF5 1-102, looked up)", "chain": "MSPRKTYILKLYVAGNTPNSVRALCTLKNILEVEFQGVYALKVIDVLKNPQLAEEDKILATPTLAKVLPLPVRRIIGDLSDREKVLIGLDLLYGELQDSDDF", "modifications": "FITC label", "notes": "KaiB, circadian clock protein of cyanobacteria, with K25C; also called fluorescently labeled KaiB"}, "B2": {"name": "biotinylated KaiB (natural protein, UniProt Q79PF5 1-102, looked up)", "chain": "B1 chain with C25K", "modifications": "biotin, amine-reactive (potential sites: lysine residues); EZ-Link-Sulfo-NHS-LC-Biotin at a 50x molar excess to KaiB", "notes": "KaiB, circadian clock protein of cyanobacteria; In the assays b-KaiB was mixed with unlabeled KaiB (55% b-KaiB, 45% KaiB); also called b-KaiB; source: recombinantly expressed and purified as previously described; biotinylated with EZ-Link-Sulfo-NHS-LC-Biotin"}},
  "details_in_all_cases": "both partners purified",
  "key": {"[1]": {"target": "T1, pS KaiC (KaiC-EA; S431E, T432A) (UniProt Q79PF4 1-519, S431E | T432A)", "T1 construct": "KaiC, circadian clock protein of cyanobacteria, phosphomimetic of the pS431 (night) state; also called pS KaiC mutant; source: recombinantly expressed and purified as previously described", "T1 sequence (looked up)": "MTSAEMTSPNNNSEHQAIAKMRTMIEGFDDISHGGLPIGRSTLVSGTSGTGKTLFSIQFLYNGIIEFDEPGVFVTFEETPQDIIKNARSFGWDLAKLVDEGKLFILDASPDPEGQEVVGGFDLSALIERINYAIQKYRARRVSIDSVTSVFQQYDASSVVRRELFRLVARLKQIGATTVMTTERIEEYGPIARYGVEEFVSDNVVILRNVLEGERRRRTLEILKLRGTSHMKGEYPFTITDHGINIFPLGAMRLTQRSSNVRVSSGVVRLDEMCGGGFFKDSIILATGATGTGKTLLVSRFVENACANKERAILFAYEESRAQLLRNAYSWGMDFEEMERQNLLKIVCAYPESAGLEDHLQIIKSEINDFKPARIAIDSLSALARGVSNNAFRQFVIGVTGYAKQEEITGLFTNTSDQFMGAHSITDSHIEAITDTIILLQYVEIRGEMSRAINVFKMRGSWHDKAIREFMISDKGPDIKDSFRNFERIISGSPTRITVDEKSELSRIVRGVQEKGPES", "assay": "fluorescence polarisation; colloid-linking conditions: 5.5 μM KaiB (55% b-KaiB), 6.5 μM KaiC (wild-type, pT or pS), 2.2 μM KaiA, 0.4 μM FITC-labeled KaiB K25C; time course"}, "[2]": {"target": "T2, KaiC (wild-type) (UniProt Q79PF4 1-519)", "T2 construct": "KaiC, circadian clock protein of cyanobacteria; hexameric ring; In reactions with KaiA the phosphorylation of S431 and T432 cycles over about 24 h; also called WT KaiC; wild-type KaiC; source: recombinantly expressed and purified as previously described", "T2 sequence (looked up)": "T1 sequence (looked up) with E431S, A432T", "assay": "fluorescence polarisation; standard oscillator reaction: 1.5 μM KaiA, 3.5 μM KaiC, 3.5 μM KaiB at different ratios of KaiB and b-KaiB, 0.2 μM FITC-labeled KaiB K25C; time course over 144 hrs"}, "[3]": {"target": "T2, KaiC (wild-type)", "assay": "pull-down; 6.5 μM KaiC (wild-type, pT or pS) and 5.5 μM KaiB (55% b-KaiB, 45% unlabeled KaiB) in Kai buffer (10% glycerol, 150 mM NaCl, 20 mM Tris-HCl pH 8.0, 5 mM MgCl2, 0.5 mM EDTA, 1 mM ATP); 8 hr at 30°C; b-KaiB and partners removed with streptavidin-coated magnetic beads; supernatant analysed by SDS-PAGE"}, "[4]": {"target": "T1, pS KaiC (KaiC-EA; S431E, T432A)", "assay": "pull-down; 6.5 μM KaiC (wild-type, pT or pS) and 5.5 μM KaiB (55% b-KaiB, 45% unlabeled KaiB) in Kai buffer (10% glycerol, 150 mM NaCl, 20 mM Tris-HCl pH 8.0, 5 mM MgCl2, 0.5 mM EDTA, 1 mM ATP); 8 hr at 30°C; b-KaiB and partners removed with streptavidin-coated magnetic beads; supernatant analysed by SDS-PAGE"}},
  "note": "Residue numbers refer to the chain shown, from its start. In names and notes the source's numbering stands.",
  "data": [
    {"binder": "B1", "values": [
      {"measurement": "binding result", "setting": "[1]", "value": "binds"},
      {"measurement": "binding result", "setting": "[2]", "value": "binds"}
    ]},
    {"binder": "B2", "values": [
      {"measurement": "binding result", "setting": "[3]", "value": "binds"},
      {"measurement": "binding result", "setting": "[4]", "value": "binds"}
    ]}
  ]
}
